Source: patent publication US20230190701A1, “Compounds for Treating Tauopathies and Restless Leg Syndrome and Methods of Using and Screening for Same” (The United States Government as Represented, priority 2020, published 2023)

Key:
Type in all cases: biochemical
[1] = molecular target: T1, PTPRD D1 phosphatase (SEQ ID NO: 1) (Homo sapiens, UniProt P23468); test: Orthophosphate release assay (malachite green/molybdate) with phosphopeptide substrates; settings: for PTPRD's activity in dephosphorylating CDK5 phosphopeptide (positive allosteric modulation): pY15 CDK5 phosphopeptide, flavonoid 10^−4 M (FIG. 7); for PTPRD's activity in dephosphorylating CDK5 phosphopeptide (positive allosteric modulation) / PTPRD's activity in dephosphorylating GSK3 phosphopeptide (positive allosteric modulation): vs vehicle; for PTPRD's activity in dephosphorylating GSK3 phosphopeptide (positive allosteric modulation): pYGSK3 phosphopeptide, flavonoid 10^−4 M (FIG. 8); for normalized rates of liberation of orthophosphate from pY15CDK5 alanine substitution mutants vs wildtype: FIG. 5, Glu-substitution mutants (1, 4, 6) reductions, Lys-substitution mutants (2, 7) increases
T1 construct: His6 (N); made in house; host or cells: E. coli (vector optimized for E. coli codon use)
T1 sequence (P23468 with tags, fused parts or gaps): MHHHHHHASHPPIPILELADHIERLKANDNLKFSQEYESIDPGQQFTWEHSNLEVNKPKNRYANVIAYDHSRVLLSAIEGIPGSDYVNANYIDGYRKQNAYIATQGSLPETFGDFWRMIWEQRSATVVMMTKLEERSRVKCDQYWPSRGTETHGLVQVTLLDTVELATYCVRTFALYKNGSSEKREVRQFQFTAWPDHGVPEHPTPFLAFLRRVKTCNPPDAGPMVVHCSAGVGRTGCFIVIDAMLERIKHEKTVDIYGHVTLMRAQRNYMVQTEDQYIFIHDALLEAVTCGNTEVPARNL
From the text: The following examples utilized phosphatase protein produced from a His-tagged D1 phosphatase domain synthesized expression vector optimized for E. coli codon use (SEQ ID NO: 1). This protein was purified to >95% purity and was active in hydrolyzing pNPP substrate (FIG. 1). Human wildtype and mutant phospho- and dephospho-GSK3β/GSK3α and CDK5 peptides were synthesized (Pierce/ThermoFisher, SEQ ID NOs: 2-12) and control END(pY)INASL peptide (Promega, SEQ ID NO: 13) was purchased. Flavonoids were purchased from Thermo-Fisher, Aldrich, Cayman Chemical and AK Scientific. Purities were >95%.
Orthophosphate release assays (Promega V2471) used Malachite green and molybdate with spectrophotometric detection of liberated free orthophosphate from test phosphopeptides compared to control and mutant peptides with assessments for the times indicated. Reactions were carried out in a half-area 96-well plate, with three wells dedicated for each time point. To each experimental well, we added a mixture of 18 μL of ultrapure water, 25 μL of running buffer, 1 μL of a 10 mM DMSO solution of the desired peptide, and 1 μL of DMSO containing a desired concentration of flavonoid, or 1 μL DMSO for control experiments. The supplied molybdate dye mixture (50 μL) was added at t=0, followed by 5 μL of a 1:100 dilution of enzyme in the aforementioned dilution buffer. Other wells were initiated via the addition of 5 μL of the diluted enzyme mixture@t=0 and terminated at the desired timepoints by addition of 50 μL of the dye solution. Wells were read@605 nm.

[2] = molecular target: T1, PTPRD D1 phosphatase (SEQ ID NO: 1); test: as above; settings: peptide as substrate; FIG. 1
human PTPRD phosphatase = molecular target: T2, human PTPRD phosphatase (Homo sapiens, UniProt P23468); test: pNPP dephosphorylation to p-nitrophenolate (405 nm); settings: FIG. 4; peptide 4×10^−4 M, pNPP 1.8×10^−5M
T2 construct: His6 (N); made in house; host or cells: E. coli (vector optimized for E. coli codon use)
T2 sequence (P23468 with tags, fused parts or gaps): T1 sequence (P23468 with tags, fused parts or gaps)
Experimental: pNPP dephosphorylation to p-nitrophenolate: Triplicate assays were used for human PTPRD phosphatase, pNPP substrate and spectrophotometric 405 nm detection of the dephosphorylation product of these enzyme's activities using a Spectromax plate reader. Controls used 5×10^−5M 7-BIA with 18 min incubations as described. See G. R. Uhl et al., “Cocaine reward is reduced by decreased expression of receptor-type protein tyrosine phosphatase D (PTPRD) and by a novel PTPRD antagonist.” Proc Natl Acad Sci USA 115, 11597-11602 (2018). For assays determining the effect of flavonoids on pNPP hydrolysis, a 96 well half-area plate was prepared by first filling each well to be tested with 18 μL of 50 μM pNPP and 25 μL of running buffer (43.4 μM HEPES (pH 7.4), 2.2 μM dithiothreitol, 0.44% acetylated bovine serum albumin, 22.2 μM NaCl, 4.4 μM EDTA), and 2 μL of DMSO containing the desired concentration of flavonoid and/or peptide. PTPRD1 was diluted 1:50 in a dilution buffer (22.9 μM pH 7.4 HEPES, 1% acetylated bovine serum albumin, 4.6 μM dithiothreitol). At the zero time point, 5 uL of this solution was added to each well, and the optical density was measured in 36 second intervals at 405 nm. Results were plotted and the slopes of the linear region were fit. All experiments were performed three times with three wells dedicated to each experimental condition in each experiment.

| Compound | PTPRD's activity in dephosphorylating CDK5 phosphopeptide (positive allosteric modulation) [1] | PTPRD's activity in dephosphorylating GSK3 phosphopeptide (positive allosteric modulation) [1] | competition for PTPRD phosphatase's hydrolysis of pNPP (human PTPRD phosphatase) | normalized rates of liberation of orthophosphate from pY15CDK5 alanine substitution mutants vs wildtype [1] | also measured |
| --- | --- | --- | --- | --- | --- |
| O=c1c(O)c(-c2ccc(O)c(O)c2)oc2cc(O)cc(O)c12 [quercetin] | increased | increased |  |  | stimulation of orthophosphate liberation from phosphopeptides by PTPRD phosphatase, dose-response ([1]; FIG. 9, pYGSK3 and pYCDK5 phosphopeptides): active at micromolar concentrations |
| YEKLEKIGEGT-pY-GTVFKAKN [CDK5 phosphopeptide] |  |  | competes |  | liberation of orthophosphate from phosphopeptide by PTPRD's phosphatase [2]: rates similar to those found for the generic positive control substrate |
| YEALEKIGEGT-pY-GTVFKAKN [mutant 4] |  |  |  | trends |  |
| YEKLEKIGAGT-pY-GTVFKAKN [mutant 1] |  |  |  | trends |  |
| YEALEAIGEGT-pY-GTVFKAKN [mutant 7] |  |  |  | nominally-significant increases in activity |  |
| YEKLEAIGEGT-pY-GTVFKAKN [mutant 2] |  |  |  | nominally-significant increases in activity |  |
| YAKLAKIGAGT-pY-GTVFKAKN [mutant 6] |  |  |  | nominally-significant (6) reductions in activity |  |

More lines, main results first:

| PTPRD's activity in dephosphorylating CDK5 phosphopeptide (positive allosteric modulation) [1] | PTPRD's activity in dephosphorylating GSK3 phosphopeptide (positive allosteric modulation) [1] | competition for PTPRD phosphatase's hydrolysis of pNPP (human PTPRD phosphatase) | Compound | normalized rates of liberation of orthophosphate from pY15CDK5 alanine substitution mutants vs wildtype [1] | also measured |
| --- | --- | --- | --- | --- | --- |
|  |  | inactive | QLVRGEPNVSYICSRYYRAPE (QLVRGEPNVSSYICSRYYRAPE) [dephospho GSK3β, GSK3α peptide, GSK3β/α wildtype dephosphopeptide] |  |  |
|  |  | competes | QLVRGEPNVS-pY-ICSRYYRAPE [GSK3 phosphopeptide] |  | liberation of orthophosphate from phosphopeptide by PTPRD's phosphatase [2]: substantial liberation of orthophosphate |
|  |  | inactive | YEKLEKIGEGTYGTVFKAKN [dephospho CDK5 peptide, CDK5 wildtype dephosphopeptide] |  |  |
| trend-level | significant |  | O=c1c(O)c(-c2cc(O)c(O)c(O)c2)oc2cc(O)cc(O)c12 [myricetin] |  |  |
| trend-level | significant |  | O=c1c(O)c(-c2ccc(O)cc2O)oc2cc(O)cc(O)c12 [morin] |  |  |
| trend-level | significant |  | O=c1c(O)c(-c2ccc(O)c(O)c2)oc2cc(O)ccc12 [fisetin] |  |  |
